Measurements reported in paper PMC3209416.

Substrate: CCCCC(O)CC(=O)C(=O)O
Test: purified protein
Type: biochemical, Thermotoga maritima
Settings: retro-aldol cleavage, HEPES 100 mM pH 7.5, 34 °C

B1: T. maritima KDPG aldolase (wt-TMA; TM KDPG aldolase) (Thermotoga maritima MSB8; N150I) (protein)
chain: MKMEELFKKHKIVAVLRANSVEEAKEKALAVFEGGVHLIEITFTVPDADTVIKELSFLKEKGAIIGAGTVTSVEQCRKAVESGAEFIVSPHLDEEISQFCKEKGVFYMPGVMTPTELVKAMKLGHTILKLFPGEVVGPQFVKAMKGPFPIVKFVPTGGVNLDNVCEWFKAGVLAVGVGSALVKGTPDEVREKAKAFVEKIRGCTE
- Km (mutant TM 8): 49 ± 19 mM
- kcat (mutant TM 8): 1.2 ± 0.3 s⁻¹
- kcat/Km (mutant TM 8): 25 ± 5 M⁻¹ s⁻¹

B2: T. maritima KDPG aldolase (wt-TMA; TM KDPG aldolase) (Thermotoga maritima MSB8; G34R/R190I/V172A) (protein)
chain: MKMEELFKKHKIVAVLRANSVEEAKEKALAVFERGVHLIEITFTVPDADTVIKELSFLKEKGAIIGAGTVTSVEQCRKAVESGAEFIVSPHLDEEISQFCKEKGVFYMPGVMTPTELVKAMKLGHTILKLFPGEVVGPQFVKAMKGPFPNVKFVPTGGVNLDNVCEWFKAGALAVGVGSALVKGTPDEVIEKAKAFVEKIRGCTE
- Km (mutant TM 1): 9 ± 2 mM
- kcat (mutant TM 1): 0.07 ± 0.01 s⁻¹
- kcat/Km (mutant TM 1): 9.3 ± 1.8 M⁻¹ s⁻¹

B3: T. maritima KDPG aldolase (wt-TMA; TM KDPG aldolase) (Thermotoga maritima MSB8; G83E/K9T) (protein)
chain: MKMEELFKTHKIVAVLRANSVEEAKEKALAVFEGGVHLIEITFTVPDADTVIKELSFLKEKGAIIGAGTVTSVEQCRKAVESEAEFIVSPHLDEEISQFCKEKGVFYMPGVMTPTELVKAMKLGHTILKLFPGEVVGPQFVKAMKGPFPNVKFVPTGGVNLDNVCEWFKAGVLAVGVGSALVKGTPDEVREKAKAFVEKIRGCTE
- Km (mutant TM 2): 90 ± 20 mM
- kcat (mutant TM 2): 0.5 ± 0.1 s⁻¹
- kcat/Km (mutant TM 2): 5.5 ± 1 M⁻¹ s⁻¹

B4: T. maritima KDPG aldolase (wt-TMA; TM KDPG aldolase) (Thermotoga maritima MSB8; V136M) (protein)
chain: MKMEELFKKHKIVAVLRANSVEEAKEKALAVFEGGVHLIEITFTVPDADTVIKELSFLKEKGAIIGAGTVTSVEQCRKAVESGAEFIVSPHLDEEISQFCKEKGVFYMPGVMTPTELVKAMKLGHTILKLFPGEVMGPQFVKAMKGPFPNVKFVPTGGVNLDNVCEWFKAGVLAVGVGSALVKGTPDEVREKAKAFVEKIRGCTE
- Km (mutant TM 4): 23 ± 4 mM
- kcat (mutant TM 4): 0.36 ± 0.02 s⁻¹
- kcat/Km (mutant TM 4): 16 ± 2 M⁻¹ s⁻¹

B5: T. maritima KDPG aldolase (wt-TMA; TM KDPG aldolase) (Thermotoga maritima MSB8; A30V) (protein)
chain: MKMEELFKKHKIVAVLRANSVEEAKEKALVVFEGGVHLIEITFTVPDADTVIKELSFLKEKGAIIGAGTVTSVEQCRKAVESGAEFIVSPHLDEEISQFCKEKGVFYMPGVMTPTELVKAMKLGHTILKLFPGEVVGPQFVKAMKGPFPNVKFVPTGGVNLDNVCEWFKAGVLAVGVGSALVKGTPDEVREKAKAFVEKIRGCTE
- Km (mutant TM 5): 14 ± 5 mM
- kcat (mutant TM 5): 0.75 ± 0.1 s⁻¹
- kcat/Km (mutant TM 5): 54 ± 10 M⁻¹ s⁻¹

B6: T. maritima KDPG aldolase (wt-TMA; TM KDPG aldolase) (Thermotoga maritima MSB8; I52F/T185A/V135M) (protein)
chain: MKMEELFKKHKIVAVLRANSVEEAKEKALAVFEGGVHLIEITFTVPDADTVFKELSFLKEKGAIIGAGTVTSVEQCRKAVESGAEFIVSPHLDEEISQFCKEKGVFYMPGVMTPTELVKAMKLGHTILKLFPGEMVGPQFVKAMKGPFPNVKFVPTGGVNLDNVCEWFKAGVLAVGVGSALVKGAPDEVREKAKAFVEKIRGCTE
- Km (mutant TM 6): 8 ± 3 mM
- kcat (mutant TM 6): 0.13 ± 0.02 s⁻¹
- kcat/Km (mutant TM 6): 17 ± 6 M⁻¹ s⁻¹
